This note sets out measurements from the domain aggregation screens of Martell et al. (2025).

A short description of this data set: soluble fraction after stress (log2 fold change); higher = more stays soluble; pooled small domains, quantitative proteomics. The following applies: stress: pH 4. Summed up: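 How much of each domain stays soluble after acid stress, expressed as a fold change, is used to gauge aggregation propensity. Pooled custom libraries of small domains underwent pH 4 stress before high-throughput quantitative proteomics. A higher log2 value means more of the domain stayed soluble.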
For “HMDKESQTMFRLLTGVSGVGPKVGLAILSVLSPDRVVLAISAGDHKAFTAASGVGPKLGQRIVLELKDKVG”, the “soluble fraction (log2)” value was -0.557.

With “HMDKEVLYVTVNDKKVKLDGKNHIFIDIFNYIDFDIKKPNGSIVLKLNGKNAGYMDEIKDGDKIEIYWDK”, the “soluble fraction (log2)” value was -0.277.

For the sequence “HMDKEVMEAVLRILYDDDFNPDQRDAILYFFVQELDQRTISEITGAKIGTVKKRIHDGLKKLRQKLAKEDL”, the “soluble fraction (log2)” value is -1.03.

With “HMDKGEQILQQALDKLPPKQRQVFEMRYFDEMPYREIATITETSEGALKASYHHAVKKIQQYISHL”, the “soluble fraction (log2)” value is -0.0313.

In the case of “HMDKGQRGWINLVSVPTARVIIDGYDTGHETPLYGYEVERGKRKVTLISLDGTYERTYEIRIEPGTTTRVR”, the “soluble fraction (log2)” value is -0.947.

Take “HMDKIEVVEVDMSKPYEDMTVTELQNVILDKLASNGPVTNQMKKDVSENIYHDSLVNWAKSF”: the “soluble fraction (log2)” value is -0.541.

With “HMDKIYVYTTRGQVIELPRGSTAIDFAYKIQTDIGNMIIAAIVNDKLVDANYVLHNKDRVKIVTS”, the “soluble fraction (log2)” value is -0.725.

Turning to “HMDKLNKELVSRMMDDAAWKELSKDFPWTEQLLEKYMNYVDWKEISRNYNVVWTKSLLEKFKHRLDWHE”, the “soluble fraction (log2)” value was -1.1.

With “HMDKMIFFKNKENNDDNQLVKIGALLIHAAKIDEDFSQEEENIIKQTLINFGAGNKNINEIIEKAKKME”, the “soluble fraction (log2)” value came to 0.33.

For the sequence “HMDKMVAVPNVRGIEASEAEATLIAQGLFVEVEKSDSEDANVAYGEVYAQTPKAGNRVEEGTTITIKVRTE”, the “soluble fraction (log2)” value is 0.229.

Turning to “HMDKNNLHSVLQDVPGIGPKRMKELMRAFGSVEGMKKAGLEELAAVKGMNHKAAEALIQFFR”, the “soluble fraction (log2)” value was 0.297.

With “HMDKQGGWLTMAEAAEKLGVTHHVIRRLIKEKILPAEQVMRHAPHQIRIVDLESDAVAEALRHR”, the “soluble fraction (log2)” value came out at 0.155.

Take “HMDKVVGSAGDVTSRITANSGEVKIDGQIWQARSYDETIAIEAGEKIEVFDLDGITLIVYPI”: the “soluble fraction (log2)” value was -1.19.

Consider “HMDLAENWKDDADITLAEYNAIRSRYKPGKLHRDTEFMIARDMLIRPETVLAIAHSRFSNVHTHPV”, for which the “soluble fraction (log2)” value is -0.771.

On to “HMDLDEELDFLSDADESATKLDLARAYIDMGDKDGARDILAEVLEEGRSEQKREAQALLDSI”, for which the “soluble fraction (log2)” value is -1.76.

In the case of “HMDLDPVEKLHLLSQLYVGQLKGSFVVKEKNQKTTIIGEVRELSHQTLSIRTNEGYRLIEVADILEIRLWE”, the “soluble fraction (log2)” value was -0.362.

In the case of “HMDLDYSGIMNVLNQKYHITFYNNKKIQNLMPKLMIIMGYNSIINEIGHSKSLKALINSFEEKLKSYILT”, the “soluble fraction (log2)” value was -0.403.

For “HMDLEGLSNKELVTLRGQIQDDLNKWATEVGIIDPKNRPDDYNRALQSLEDAKRQRSAIDAKL”, the “soluble fraction (log2)” value is -0.38.

As to “HMDLEIENYDLREILNLFKLDYNFDNVDLKRAQKIALKTHPDKSNLPKEYFMFFMKAFQIVQQIYYYRY”, the “soluble fraction (log2)” value is -1.09.

“HMDLFREERRQAILDWLATAGRVSVAELSASFGVSEVTVRADLQALADRRLVVRTHGGAMMAG”: the “soluble fraction (log2)” value was -0.955.

Regarding “HMDLHSQVFESYERKIREVLREGPLTFEEILHAFALKRHETVAQVITYLMDEGKMSDSGDGKLIYSG”, the “soluble fraction (log2)” value was -0.295.

On to “HMDLIISDIRMPEMRGDDFLEWIKANELFKHIPVIMLSSEDSTTERIRLLEIGAEDYIVKPFNPMELKIR”, for which the “soluble fraction (log2)” value is -1.01.

Regarding “HMDLLIFSPSLGQHVRDLKRVIDRLHQHGIPVRWQKAKLLREEIEYIGWTWKSGGLIDPTNV”, the “soluble fraction (log2)” value turned out to be 0.337.

As for “HMDLMSTNEKLLYTMRYLISKSLDGAITEEEIRRLDRLIIENSQARAYYVEYLQIHTHLRKLMQQNPELK”, the “soluble fraction (log2)” value is -1.15.

“HMDLRIIKTKKAIKTAFLNLLKENKYHNITISAISETALINRKTFYAHYETKDELYADVIEDALRVLSP”: the “soluble fraction (log2)” value was -1.04.

For the sequence “HMDLRIKEIMSERNVTSAWLAEKVGISKVAVSNIVTGKSSPSLDNLLKIADALNVSITTLIG”, the “soluble fraction (log2)” value worked out at 0.305.

As to “HMDLRYKVQYNFIDQGMMTKDELLKFSLNQDDVSKIAVFDNDSKQWKEIYAITEISEKLGIS”, the “soluble fraction (log2)” value is -1.57.

As to “HMDLTIEQTTVLGKRLFSNALNSLGKKQRNIKKDAIESLLKRMNLKDMDQLYESIGIGDKSPLLMAQILL”, the “soluble fraction (log2)” value is 0.0239.

On to “HMDLVIALNSRIRVIREPFFGKLGTVIDLPHKLHKMESGTMTRVAKIKFDDRTEEIIPRTNLEVILS”, for which the “soluble fraction (log2)” value was -0.35.

For “HMDLYEILGVRRGAGGGEIRRAYRRLARRYHPDVNPGDREAQARYALITRAFETLNDPERRRAYDAGVP”, the “soluble fraction (log2)” value turned out to be 0.0754.

As for “HMDMAENEEYKVIMGQAQQLAEQFFPADDNTRRIMLGQLKLENYSLYLLTKQILDEATKGQAAAAN”, the “soluble fraction (log2)” value is -0.651.

For the sequence “HMDNFDVVLTSPGDQKVQVIKAVRSITGLGLKEAKDLVDGAPNTVKEGVKKLDAEEMLKQLTEAGATGEL”, the “soluble fraction (log2)” value was -0.366.

Take “HMDNFQFIGYSQQQGQIAVAWIKSLDNGRLVRVEVSDSLEGWRVSDISAQGVNLTKGQQWLMLKRL”: the “soluble fraction (log2)” value was -1.37.

For the sequence “HMDNIGKTLGQNQTRQYKVAYAEAAKLPAIIMGLVPLPKPPVVDERLRSLYVTATPEQHRQIETLMNRI”, the “soluble fraction (log2)” value was -0.64.

Take “HMDNITIYSSNGKIYVNAIGGEKIELFNITGQKVAEKVAVSGINVLDAVYDITLVKVGSKVVKVV”: the “soluble fraction (log2)” value is -1.41.

With “HMDNLATRILKELNNNDGFLPLSDKSQPEAIYQAFGISKKSYKTAIGTLYKKRLITISENGIQLTD”, the “soluble fraction (log2)” value is -0.2.

“HMDNLSQMQERILEFIIRSKDQSGYTPSLREIGDEVGLKAVSSVKYQLEQLKDAHYISFDANTARAIRVLI”: the “soluble fraction (log2)” value was -0.438.

As to “HMDNMFVEERQALIYEELQSNGRVRVKDLSKKFNVSEDLIRKDLNVLEKEGKLRKIYGGAVLAK”, the “soluble fraction (log2)” value was 0.071.

On to “HMDNNNQAAFMGALNSLKEYAKVNGNIVTKQDVESYFKDLGLDDSKYQMITGYLLANDITVKG”, for which the “soluble fraction (log2)” value was -0.0847.

For “HMDNQYGVYSDEKNNVEIHWKRIDHPSVAKDHLDIEAYQNGKRVDINNQQADHYRYLINQEMNE”, the “soluble fraction (log2)” value is 0.226.

For the sequence “HMDPAFAQHHDRALSILHSRGYEVHDSDTDLHWARPVLEFEAYKGSLEYKIVMSYPDLNIIEERVD”, the “soluble fraction (log2)” value is -0.685.

Turning to “HMDPASYEARLSTLREQGAQQLDPVRFQYLATLAQRLPTQTPGVALILANKLRAGLSDYEQRLSEAGS”, the “soluble fraction (log2)” value was -0.0623.

“HMDPDAIVSKGQLGALNNAIGRFIAQGGSQTVVDKGIAKRNPNAKKPADLTNSQAESLEAAILKILNG”: the “soluble fraction (log2)” value came to 0.121.

Consider “HMDPLGALSDRERQVLALIGQGHGLQAIADQLGVSYKTAANTSSALKKKLGVDGINGLMKFALDSG”, for which the “soluble fraction (log2)” value was determined as 0.023.

Consider “HMDPLGGFTKGDVDMDGRVAVNDAVMVLKNAIKLMELDTQQLMLADADNDGKITVNDAVMILKKAIKLID”, for which the “soluble fraction (log2)” value is -0.478.

With “HMDPTLFRLNILEGLGLEKKNLTSEEQEQLRFLYEHFSMKEILMTIDYIKKLNLEKSIVNLYRLMQHP”, the “soluble fraction (log2)” value is -0.581.

For “HMDPTVEENKLNPRDLLIIQRVKEGRTNKEIAEELNVAEITVKKQLSSLYQRYKVHNRNQLLLALD”, the “soluble fraction (log2)” value worked out at 0.245.

As for “HMDPVQLEVIKKLNLLNAQKPKDIYALRDVLSEMFPQSDIRLLLKELLDKGYIYWNGHEVIYSHEMF”, the “soluble fraction (log2)” value is -0.431.

Consider “HMDPYEYQLELEKLINNATELNKKYNYDPLKDKILAADAVKNSLETYVLQNYIVALENEIKQTLNQYQIL”, for which the “soluble fraction (log2)” value is -0.754.

“HMDQNDYMLTRIRNGQMRNKVSVSMPASKIKSAIAAVLKDEGYIENFALNDSSGKPSLIVNLKYYAGQPV”: the “soluble fraction (log2)” value was -0.0771.

Consider “HMDQPVIDVREFGARGDGKQDDAPAIQAAVRLAEQLGGGRVVVPATREFYLLGSTIRIRGHHVTLTGPGAR”, for which the “soluble fraction (log2)” value is 0.0605.

Consider “HMDRAIAAHLEARVRDALKQLSPEQTRVIELFFFDNKTHAEIENDLKIPLGTVKSRLRLALNKLRASL”, for which the “soluble fraction (log2)” value is -0.234.

“HMDRASGEEEALKEAEDAISRVWEFDGPVELNPQNSYLRRLQHELASRYNVKSVSIGQEPNRRVVYYK”: the “soluble fraction (log2)” value was -0.428.

As to “HMDRDPAEAGYDDGYLSGNTDGMNNDERATYDESSQYPTPDERQSYAAAYRRGYAAGFADGRKQAV”, the “soluble fraction (log2)” value was -0.138.

As for “HMDREIVEAIVPLEAAGKRFDAALAEMFPEFSRSRLTEWIKAGDALLAGEIVKPKVSVRGGEAVSLSIRV”, the “soluble fraction (log2)” value is -0.256.

Regarding “HMDRELVALVQKALSQLSEQQRRIVELHVMEGMKYLEIADLLQLSENTVRTHLKRAYKILRENH”, the “soluble fraction (log2)” value was -0.921.

As for “HMDRERFIKLGREIARAAFENVGKKATDKVLNSAAKKLRLEDGDEVLARLGSAEIEARSVVQAVYPDLI”, the “soluble fraction (log2)” value amounted to 0.336.

Consider “HMDRKARRKYIEQVVNDRKIETQEELLKLLTEAGFETTQATISRDIHALNIVKANDGDGHTHYVQLH”, for which the “soluble fraction (log2)” value was found to be 0.0264.

With “HMDRKEEIIIVTLKLASQIGLSNVSMEQIAKQVGIKKPSLYNHFKSKDEIIDAMYEYLREKSKN”, the “soluble fraction (log2)” value is -1.16.

“HMDRMIPPYGLEVTYDKTTHIIFPSAVRYVDLGSPNLIAGKADGSENVIRVKATRKNFREETNMSVITE”: the “soluble fraction (log2)” value is -0.0773.

Consider “HMDRPEPLYIVNGKEVQTLEEAFELGRTLGSAKKGTQVRLRRLLPEEGVEKYGEKGRNGVFEFMVSA”, for which the “soluble fraction (log2)” value was 0.385.

Turning to “HMDRPLRTKEHFARFAGEQVVVKTSSPIDGRSSFTGTLEGMEGDDVIVEVDGSRIAIGYSLIKRAHVVG”, the “soluble fraction (log2)” value was 0.406.

As to “HMDRRFFVAEENYKRLDVFLSERMEEFTRSRIKKLIDEGHVELNGKSAKAGAEIRPGDEVAAEIPEVKE”, the “soluble fraction (log2)” value was found to be 0.239.

On to “HMDRRIDIANAVKTALGSLPERQKTAIVLVHYEGFSGAETAKLLGISVEAVESLLARARRNLRQTLGP”, for which the “soluble fraction (log2)” value is -0.586.

Take “HMDRTIGEIGLVTETIDSTLESGRVMVDGLSWKARTSDNTVLEAGTRVQVKEIHGVTLTVEKA”: the “soluble fraction (log2)” value came to 0.147.

For “HMDRTLTYTVSIEESDLRADQFLSRRGFSSHLLTRLRKNMEHLLINGTPSRTNTHLHEGDILTVHIVEE”, the “soluble fraction (log2)” value was -0.249.

For “HMDRWTPLIVAVLIEGSHRFGELRSAIGGITPKVLTETLRSMERDGLVTRDQVPGVPPRVDYALTPLG”, the “soluble fraction (log2)” value is -0.434.

For “HMDRYVDEEKRFYWRSGEAYLNFSKYKDRSLAEVATVDPGFLRWMMEADFSPETKQIVERALEGEFPQKK”, the “soluble fraction (log2)” value is -0.244.

For the sequence “HMDSADADLLRRIEDLLSSRRSVIREARLADMLGVPRDQVARALDLLQERGVIGLTTDSGMKRIAFRRN”, the “soluble fraction (log2)” value was 0.111.
